Measured values: patent US20250011427A1 (CONCEPT TO MEDICINE BIOTECH, published 2025)
Positions count from the first letter of the chain named.

Experiments:
[1] = molecular target: T1, human CD3 on cells (human PBMC; Jurkat-CD3-NFAT and TCR/CD3 Effector reporter cells) (human, UniProt P07766 23-207; P04234 22-171; P09693 23-182); assay: FACS on human PBMC, PE goat anti-human IgG Fc secondary antibody, geometric mean fluorescence
T1 construct: whole, on cells; The CD3 complex as carried by T cells; also called huPBMC; CD3 receptor
T1 sequence (P07766 23-207, chain 1 of 3): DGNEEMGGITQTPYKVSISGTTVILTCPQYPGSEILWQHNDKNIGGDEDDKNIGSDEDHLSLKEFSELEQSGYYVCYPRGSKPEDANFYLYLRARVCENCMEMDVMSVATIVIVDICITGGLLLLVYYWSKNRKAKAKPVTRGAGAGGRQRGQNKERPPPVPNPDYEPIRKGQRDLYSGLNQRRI
T1 sequence (P04234 22-171, chain 2 of 3): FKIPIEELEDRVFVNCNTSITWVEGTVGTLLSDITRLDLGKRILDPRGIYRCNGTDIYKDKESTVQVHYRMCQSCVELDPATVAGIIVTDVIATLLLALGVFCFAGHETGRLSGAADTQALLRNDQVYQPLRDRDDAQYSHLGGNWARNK
T1 sequence (P09693 23-182, chain 3 of 3): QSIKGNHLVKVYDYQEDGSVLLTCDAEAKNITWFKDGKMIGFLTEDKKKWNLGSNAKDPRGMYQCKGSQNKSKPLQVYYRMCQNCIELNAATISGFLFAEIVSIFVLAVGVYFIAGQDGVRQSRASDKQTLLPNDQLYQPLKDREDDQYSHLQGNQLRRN
Method: FACS was used to evaluate the binding activity of 153A6B1, 155A9B1, and 192A7B9 chimeric mAbs on human or cynomolgus PBMC. SP34 (Biointron, B6762) and OKT3 (Biointron, B6928) served as the benchmark controls.
Briefly, cynoPBMCs were first incubated with 3-fold serially diluted 153A6B1, 155A9B1, and 192A7B9 chimeric mAbs starting at 10 nM at 4° C. for 30 mins. While huPBMCs were incubated with 4-fold serially diluted 153A6B1, 155A9B1, and 192A7B9 chimeric mAbs starting at 10 nM at 4° C. for 30 mins. After washing by PBS, PE Goat anti-Human IgG Fc Secondary Antibody (eBioscience™, Invitrogen) was added to each well and incubated at 4° C. for 30 mins. Samples were washed twice with FACS buffer. The mean florescence intensity (MFI) of PE was evaluated by MACSQuant Analyzer 16.

[2] = molecular target: human CD3 on cells (human PBMC; Jurkat-CD3-NFAT and TCR/CD3 Effector reporter cells) (human) (UniProt P07766); assay: cell-based or functional assay
Chain of human CD3 on cells (human PBMC; Jurkat-CD3-NFAT and TCR/CD3 Effector reporter cells) (human) (P07766 23-207, chain 1 of 3): as the sequence (P07766 23-207, chain 1 of 3) above
Chain of human CD3 on cells (human PBMC; Jurkat-CD3-NFAT and TCR/CD3 Effector reporter cells) (human) (P04234 22-171, chain 2 of 3, further chain): as the sequence (P04234 22-171, chain 2 of 3) above
Chain of human CD3 on cells (human PBMC; Jurkat-CD3-NFAT and TCR/CD3 Effector reporter cells) (human) (P09693 23-182, chain 3 of 3, further chain): as the sequence (P09693 23-182, chain 3 of 3) above

B1: SP34 monoclonal antibody (antibody, human IgG1, lambda, N297A, V domains shown)
VH: EVQLVESGGGLVQPKGSLKLSCAASGFTFNTYAMNWVRQAPGKGLEWVARIRSKYNNYATYYADSVKDRFTISRDDSQSILYLQMNNLKTEDTAMYYCVRHGNFGNSYVSWFAYWGQGTLVTVSA
VL: QAVVTQESALTTSPGETVTLTCRSSTGAVTTSNYANWVQEKPDHLFTGLIGGTNKRAPGVPARFSGSLIGDKAALTITGAQTEDEAIYFCALWYSNLWVFGGGTKLTVLG
notes: Benchmark, bought (Biointron, B6762)
EC50 (read off the curve) [1]: ~0.3 nM

B2: Hu155A9B1-1 (antibody, V domains shown)
VH: EVQLQESGPGLVKPSETLSLTCTVSGGSISSYNVHWIRQPPGKGLEWIGRVRYNGDTSYNSALKSRVTISVDTSKNQFSLKLSSVTAADTAVYYCARGPYGGSSEPLFDYWGQGTMVTVSS
VL: DIQMTQSPSSLSASVGDRVTITCKASQNINKYLNWYQQKPGKAPRLLIYTTNNLQTGVPSRFSGSGSGTDFTLTISSLQPEDFATYYCLQHNSGYTFGQGTKLEIK
% of SP34 [2]: 14.2%

B3: Hu155A9B1-13 (antibody, V domains shown)
VH: B2 VH
VL: B2 VL with Y36F, V58I, Y87F
% of SP34 [2]: 18.4%
